Experimental data published in patent US11505583B2, “Proteins for the treatment of epithelial barrier function disorders” (Second Genome, Inc., priority 2018, dated 2022).

Assays:
[1] = Forced degradation under stress conditions (SEC-HPLC, LC/MS/MS) (Example 8); type: physicochemical; details: for Aggregates (SEC-HPLC): 2 weeks
Procedure: SG-11 (SEQ ID NO:9) was also tested under a series of stress conditions shown in Table 8 below to further characterized the stability of recombinant, purified SG-11. Stressed samples were analyzed either by SEC-HPLC for the presence of aggregates and/or degradants. LC/MS/MS was performed for determination of levels of deamidation and oxidation.
For this analysis, SG-11 (SEQ ID NO:9) was present at a concentration of 1 mg/ml in PBS (50 mM sodium phosphate, 150 mM NaCl, 10% glycerol, pH 8.0), with the exception of tests under pH 4 and pH 9. For pH 4, SG-11 (SEQ ID NO:9) was prepared at a concentration of 1 mg/ml in sodium acetate buffer (50 mM sodium acetate, 150 mM NaCl, pH 4). For pH 9, SG-11 (SEQ ID NO:9) was prepared at a concentration of 1 mg/ml in CAPSO (3-cyclohexylamino-2-hydroxy-1-propanesulfonic acid) buffer (50 mM CAPSO, 150 mM NaCl, pH 9).
Three samples treated by incubation at 40° C. for two weeks, oxidation (H2O2) or high pH 9, respectively, were analyzed by LC/MS/MS for PTMs. […] 7.84% of N53 was deamidated without any treatment.
After reduction, free cysteines were artificially carbamidomethylated by iodoacetamide to block cysteine residues from oxidation in the assays.

[2] = Aggregation by analytical size exclusion chromatography (Example 9); type: physicochemical
Procedure: The stability of SG-11 (SEQ ID NO:9) was evaluated following the incubation at 37° C. for one week and at 4° C. for 3 weeks in Buffer C (100 mM sodium phosphate, pH 7.0, 0.5 M sorbitol). The stability was assessed by monitoring the aggregation formation with analytical size exclusion chromatography (SEC) equilibrated with Buffer D (100 mM sodium phosphate, pH 7.0, 10% glycerol). […] The cause of the aggregation was investigated as follows. There are two cysteine residues found in SG-11 at the positions 147 and 151 (relative to SEQ ID NO:7). […] As free sulfhydryl groups could cause aggregation by forming unpreferable intermolecular disulfide bonds, it was examined whether the presence of reducing agent, such as β-mercaptoethanol, could prevent the aggregation.

trypsin = experiment: Incubation with immobilized trypsin, SDS-PAGE (Example 14); type: in vitro ADME; details: room temperature, 10 min to 2 hr, PBS pH 7.4, FIG. 25
Procedure: An experiment was performed to assess generation of the fragment upon incubation in the presence of trypsin. Columns were prepared to contain 100 μl immobilized Trypsin slurry, washed twice with PBS, loaded with SG-11 (SEQ ID NO:9) diluted in PBS, pH 7.4, then incubated at room temperature for varied times. To stop the reaction, each column was centrifuged to remove protein from the column, then analyzed on an SDS-PAGE gel using Coomassie Blue visualization.

[3] = Stability in fecal slurry, SDS-PAGE and Coomassie blue (Example 14); details: 37° C., 10 min, 30 min, 1 hr, 2 hr; human fecal pellets in PBS; FIG. 24

B1: SG-11 (SEQ ID NO:9): SG-11 (SEQ ID NO:3) with a FLAG-tag (DYKDDDDK) at the N-terminus (protein)
chain: MDYKDDDDKGSSHMLEGEESVVYVGKKGVIASLDVETLDQSYYDETELKSYVDAEVEDYTAEHGKNAVKVESLKVEDGVAKLKMKYKTPEDYTAFNGIELYQGKVVASLAAGYVYDGEFARVEEGKVVGAATKQDIYSEDDLKVAIIRANTDVKVDGEICYVSCQNVKLTGKDSVSIRDGYYLETGSVTASVDVTGQESVGTEQLSGTEQMEMTGEPVNADDTEQTEAAAGDGSFETDVYTFIVYK
modifications: N-terminal FLAG tag
Aggregates (SEC-HPLC) ([1]; 4° C.): low level of aggregates
Aggregates (SEC-HPLC) ([1]; 37° C.): major aggregation occurred
Aggregation or degradation (SEC-HPLC) ([1]; mechanical stress): do not cause either protein aggregation or degradation
Aggregation or degradation (SEC-HPLC) ([1]; repeated freeze and thaw): do not cause either protein aggregation or degradation
Aggregation formation (analytical SEC) ([2]; 4-days incubation at 37° C. in presence of 2.5% (v/v) mercaptoethanol, 50 mM sodium phosphate, 150 mM NaCl, 10% glycerol): Aggregation was greatly suppressed
Aggregation formation (analytical SEC) ([2]; 4° C. for 3 weeks in Buffer C (100 mM sodium phosphate, pH 7.0, 0.5 M sorbitol), vs freshly thawed protein): No noticeable change
Aggregation formation (analytical SEC) ([2]; 37° C. for one week in Buffer C (100 mM sodium phosphate, pH 7.0, 0.5 M sorbitol)): clearly showed aggregation peaks
Product on incubation with trypsin (SDS-PAGE) (trypsin): a predominant band is generated in the presence of trypsin
Stability in fecal slurry (SDS-PAGE) [3]: generation of a predominant band with an apparent molecular weight of about 25 kDa
